Article PMC4706430

Biological target: Elastase (human neutrophil elastase) (human) (UniProt P08246)
Sequence (P08246 30-267): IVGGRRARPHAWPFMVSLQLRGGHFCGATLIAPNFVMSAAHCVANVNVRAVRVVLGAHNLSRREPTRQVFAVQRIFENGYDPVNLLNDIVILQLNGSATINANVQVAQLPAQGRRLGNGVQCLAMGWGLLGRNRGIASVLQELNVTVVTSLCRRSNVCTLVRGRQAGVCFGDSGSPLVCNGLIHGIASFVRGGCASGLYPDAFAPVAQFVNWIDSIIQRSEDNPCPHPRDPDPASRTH

## Boophilin (natural protein)
  cleavage of TFPI (1 μg) by elastase (0.8 μg/mL) with Boophilin 0-3 μM, SDS-PAGE (Fig 4D): 20%
